{"source": "paper PMC7745056", "biological_target": "T1, IiWRKY34 (Isatis indigotica, UniProt A0A6G8R7I5 1-302)", "T1 sequence": "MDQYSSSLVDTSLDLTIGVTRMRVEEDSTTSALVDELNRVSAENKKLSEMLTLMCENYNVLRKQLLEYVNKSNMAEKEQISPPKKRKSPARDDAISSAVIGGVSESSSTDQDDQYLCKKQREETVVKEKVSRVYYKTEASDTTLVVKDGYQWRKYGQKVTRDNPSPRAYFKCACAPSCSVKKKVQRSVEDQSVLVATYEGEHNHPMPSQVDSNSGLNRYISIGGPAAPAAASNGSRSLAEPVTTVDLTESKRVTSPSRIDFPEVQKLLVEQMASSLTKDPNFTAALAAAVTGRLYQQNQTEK", "test": "EMSA", "data": [{"binder": "Ii4CL3 promoter mutated W-box probe (Ii4CL3mpF/mpR) (dsDNA) DNA 1: TCCGATTTTTTTCATAATTAATTTGAAATGTGCGGTTGATTTTTTTCCAA DNA 2: TTGGAAAAAAATCAACCGCACATTTCAAATTAATTATGAAAAAAATCGGA", "values": [{"measurement": "binding result", "value": "no binding"}]}]}
